# B1: 4G12: rat anti-bovine PD-L1 monoclonal antibody; VL SEQ ID NO: 1, VH SEQ ID NO: 2 (antibody, listed as Rattus norvegicus, V domains shown)
# VH: MGWSQIILFLVAAATCVHSQVQLQQSGAELVKPGSSVKISCKASGYTFTSNFMHWVKQQPGNGLEWIGWIYPEYGNTKYNQKFDGKATLTADKSSSTAYMQLSSLTSEDSAVYFCASEEAVISLVYWGQGTLVTVSS
# VL: MESQTHVLISLLLSVSGTYGDIAITQSPSSVAVSVGETVTLSCKSSQSLLYSENQKDYLGWYQQKPGQTPKPLIYWATNRHTGVPDRFTGSGSGTDFTLIISSVQAEDLADYYCGQYLVYPFTFGPGTKLELK
# Assays:
# [1] = tested on: canine PD-L1; test: Flow cytometry cross-reactivity with canine PD-L1 expressing cells; assay type: binding
# Protocol: COS-7 cells were subcultured at a density of 5×10^4 cells/cm^2 in 6-well plates, and then cultured overnight in RPMI 1640 medium containing 10% inactivated fetal bovine serum and 0.01% L-glutamine at 37° C. in the presence of 5% CO2. The pEGFP-N2-cPD-1, pEGFP-N2-cPD-L1 or pEGFP-N2 (negative control) was introduced into COS-7 cells at 0.4 μg/cm^2 using Lipofectamine 2000 (Invitrogen). The cells were cultured for 48 hours (cPD-1-EGFP expressing cell and cPD-L1-EGFP expressing cell). In order to confirm the expression of canine PD-1 and PD-L1 in the thus prepared expressing cells, intracellular localization of enhanced green fluorescent protein (EGFP) was visualized with an inverted confocal laser microscope LSM700 (ZEISS) (Maekawa N, Konnai S, Ikebuchi R. Okagawa T, Adachi M, Takagi S, Kagawa Y. Nakajima C, Suzuki Y, Murata S, Ohashi K. PLoS One. 2014 Jun. 10; 9(6):e98415).
# In order to identify rat anti-bovine PD-L1 monoclonal antibody showing cross-reactivity with canine PD-L1, flow cytometry was performed using the anti-bovine PD-L1 antibody prepared in 2.1 above. The anti-bovine PD-L1 antibody (10 μg/ml) was reacted with 2×10^5-1×10^6 cells at room temperature for 30 min. After washing, the anti-bovine PD-L1 antibody was detected with allophycocyanine-labeled anti-rat Ig goat antibody (Beckman Coulter). FACS Verse (Becton, Dickinson and Company) was used for analysis. […]
# [2] = tested on: water buffalo leukocytes; test: Flow cytometry reactivity with water buffalo leukocytes; assay type: binding, water buffalo (Bubalus bubalis)
# Protocol: Peripheral blood of water buffalo (Bubalus bubalis; Asian water buffalo) was hemolyzed with ACK buffer to isolate leukocytes. […] After washing, reaction with allophycocyanine-labelled anti-rat Ig goat antibody (Beckman Coulter) and fluorescein isothiocyanate-labeled anti-mouse IgG2 goat antibody (Beckman Coulter) was conducted at room temperature for 30 min. For analysis, FACS Calibur (BD Biosciences) was used. As a negative control antibody, rat IgG2a (κ) isotype control (BD Biosciences) was used. For every washing operation and dilution of antibodies, 10% inactivated goat serum supplemented PBS was used.
molecule,measurement,setting,value
B1,Cross-reactivity with / binding to canine PD-L1,[1],showed cross-reaction with canine PD-L1
same,Binding to blood macrophages (CD14+ CD11b+ cells) of water buffalo,[2],strongly bound
same,Binding to lymphocytes (CD14− CD11b− cells) of water buffalo,[2],weakly bound
